For experiment [1], the target named is T1, bacterially-produced MUC1-C/ECD protein (human, UniProt P15941 1098-1155).
T1 construct: Produced in bacteria; also called MUC1 proteins made in bacteria; p58-mFc
T1 sequence: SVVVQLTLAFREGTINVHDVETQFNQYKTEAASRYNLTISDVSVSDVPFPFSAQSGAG
Description: Western blot. Background: A western blot detects proteins with antibodies after separation by electrophoresis.

In a further experiment the target is T2, MUC1-C/ECD-hFc (human, UniProt P15941 1098-1155).
T2 construct: The screening text says the antigen was MUC1-C/ECD-mFc or MUC1-C/ECD-hFc; the hFc form is used here because hFc alone was the negative control; also called hFc-MUC1-C/ECD; MUC1-ECD-hFc; not shown: human Fc (hFc)
T2 sequence: T1 sequence
As to the kind of experiment: hybridoma screen, indirect ELISA or Western blot; antigen MUC1-C/ECD-mFc or MUC1-C/ECD-hFc. The procedure:
ELISA. ELISA was performed by coating the plates with 100 μl of 1 μg/ml MUC1-C/ECD-hFc or MUC1-C/ECD-mFc or hFc (as negative control). Hybridoma supernatants or immune sera were screened against the coated proteins by incubating with the plate for 1 hr. The bound antibody was detected by incubating with specific secondary antibody (anti-mouse Ig, F(ab)₂ specific) conjugated to HRP (horse radish peroxidase). Further, the reaction was developed with HRP-specific substrate for 30 min and the plate was read at 405 nm.
Fusion for Hybridoma and Primary Screening. Based on the results obtained from the ELISA, spleen from both mice was used for fusion with myeloma cells to generate hybridoma. Spleen-myeloma fusion was performed by mixing mouse myeloma cells sp2/0-Ag14 and splenocytes in 1:3 ratio in the presence of polyethylene glycol (PEG). Post fusion cell culture was carried out in selective HAT medium. Hybridomas selected by indirect ELISA or Western blot using recombinant MUC-C/ECD-mFc or MUC1-C/ECD-hFc as the antigen and were subjected to subcloning by limiting dilution protocol until the clones become stable. The fusion clones obtained from the spleen of mouse 1 is termed as 315.1 clones and similarly the one from mouse 2 is called 315.2 clones. The fusion clones obtained from the spleen of mouse 1 from other immunization batch is termed as 384 clones. […]
(In general: ELISA stands for enzyme-linked immunosorbent assay.)

In another experiment the target is T3, P2 (human).
T3 construct: Synthetic overlapping peptide of MUC1-C/ECD; also called peptide P2
T3 peptide: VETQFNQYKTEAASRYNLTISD
As to the kind of experiment: ELISA on coated MUC1-C/ECD antigen with or without peptide (indirect). How it is done:
(§1) Characterized of 7B8 and 3D1 antibodies. Linear epitope mapping of 7B8 and 3D1 clones was performed using three overlapping peptides spanning the entire MUC1-C/ECD region (58 amino acids) were synthesized. ELISA assays were performed using 7B8 or 3D1 purified antibodies in the presence or absence of P1, P2 or P3 peptides. […] Conformational epitope mapping of 7B8 and 3D1 was performed using eight critical individual point mutants in the MUC1-C/ECD region by ELISA. […] These findings indicate that D19 is a part of the conformational core/pocket for 3D1 binding. ZR-75-1 breast carcinoma cells were used determine 7B8 or 3D1 antibody binding in a competitive format with MUC1-C/ECD and analyzed by FLOW. […] These findings indicate that the conformational binding epitopes of 7B8 and 3D1 are different. The sequencing results for hybridoma 3D1 is shown in FIG. 50 and is discussed in greater detail below.

The target of a further experiment is T4, P1 (human).
T4 construct: Synthetic overlapping peptide of MUC1-C/ECD; also called peptide P1
T4 peptide: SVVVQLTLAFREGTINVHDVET
The experiment is described as above. How it is done:
as §1

A further experiment has as its target T5, P3 (human).
T5 construct: Synthetic overlapping peptide of MUC1-C/ECD; also called peptide P3
T5 peptide: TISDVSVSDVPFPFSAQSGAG
Described as above. How it is done:
as §1

The next experiment deals with T6, MUC1-C/ECD protein (human, UniProt P15941 1098-1155).
T6 construct: also called MUC1-C/ECD antigen; the antigen
T6 sequence: T1 sequence
Description: ELISA, plates coated with the MUC1-C/ECD antigen; soluble MUC1-C/ECD protein also abrogated 3D1 binding to cells.

B1: 384.1.2H11.F2.G6 (antibody, V domains shown)
VH: QIQLVQSGPELKKPGETVKTSCKASGYTFTGYSMHWVKQAPGKGLKWMGWINTETGEPTYADDFKGRFALSLETSASTTYLQINNLKNEDTATYFCVRGTGGDDWGQGTTLTVSS
VL: DVVMTQTPLSLPVSLGDQASISCRSSQSLVHSNGNTYLHWYLQKPGQSPKLLIYKVSNRFSGVPDRFSGSGSGTDFTLKINRVEAEDLGVYFCSQGTHVPPTFGGGTKLEIKR
notes: The printed entries run a few residues into the constant regions; also called 384.2H11.F2.G6
As to B1, the binding result (in experiment [1]; with MUC1-C/ECD-hFc) was “binds” in each case.

B2: 441.3.3D1.D6.D11.B1.F10 (antibody, V domains shown)
VH: QVQLQQSGAELVRPGSSVKISCKTSGYAFSNFWMNWVKQRPGQGLEWIGQIYPGDGDTNYNGKFKGKATLTADKSSSTAYMQLSSLTSEASAVYFCARSYYRSAWFAYWGQGTLVSVSA
VL: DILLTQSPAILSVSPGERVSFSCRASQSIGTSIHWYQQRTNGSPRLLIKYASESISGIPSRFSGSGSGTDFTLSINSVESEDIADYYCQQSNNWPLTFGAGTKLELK
notes: Mouse hybridoma antibody; also called Anti-Muc-1; 536064-1
B2: the binding result with P2 was “no binding”; in the experiment with P1 it was “no binding”; with P3, “no binding”; with MUC1-C/ECD protein it was “binds”.

The values are drawn from US20160340442A1 (Dana-Farber, published 2016).
